# Reference: patent US7256321B2, “Intracellular modulators of apoptopic cell death pathways” (Applied Research Systems ARS Holding N.V., priority 1997, dated 2007)
# B1: GILR: Glucocorticoid Induced Leucine-zipper family Related protein, 137 amino acids (mouse), overexpressed from GILR cDNA in pcDNA3 (protein)
# chain: MNTEMYQTPMEVAVYQLHNFSTSFFSSLLGGDVVSVKLDNSASGASVVALDNKIEQAMDLVKNHLMYAVREEVEVLKEQIRELLEKNSQLERENTLLKTLASPEQLEKFQSRLSPEEPAPEAPETPETPEAPGGSAV
# Key:
# Type in all cases: cell-based, mouse
# 3DO transfected clones [1] = experiment: Anti-CD3-induced apoptosis of 3DO transfected clones (propidium iodide flow cytometry); details: GILR expression in transfected 3DO clones
# Method: Thymocytes were obtained from 3 to 5-week-old C3H/HeN mice purchased from Charles River (Milan, Italy). The cell suspensions were washed, filtered and adjusted to a concentration of 8×10^6 cells/ml in complete medium. The cells were incubated at 37° C. alone or with 100 nM/l DEX (Sigma, St. Louis, Mo.) for 3 hrs. A CD3+, CD4+, CD2+, CD44+ sub-line obtained in our laboratory of the OVA-specific mouse hybridoma T cell line (3DO; Ayroldi et al., 1995) maintained in suspension in RPMI 1640 medium supplemented with 10% FCS and […] HEPES buffer was used for transfection experiments. […]
# The GILR cDNA coding sequence (874 bp—see FIG. 2) was cloned into a pcDNA3 plasmid (Invitrogen) for expression in mammalian cells. […] These surviving cells were considered clones and analyzed in an RNase protection assay for the expression of exogenous GILR (Vito et al., 1996). […]
# Apoptosis was measured by flow cytometry as described elsewhere (Nicoletti et al., 1991). […] The PI-fluorescence of individual nuclei was measured by flow cytometry using standard FACScan equipment (Becton Dickinson). […] A 560 nm dichroid mirror (DM 570) and a 600 nm band pass filter (band width 35 nm) were used to collect the red fluorescence due to PI DNA staining. The data were recorded in logarithmic scale in a Hewlett Packard (HP 9000, model 310; Palo Alto, Calif.) computer. […]
# 3DO transfected clones [2] = experiment: Apoptosis induced by other stimuli on 3DO transfected clones; details: GILR overexpression in 3DO clones GILR/1,5,7 vs pcDNA3/4,7,8, 20 hours
# Method: FIGS. 7A-7D are bar-graph representations of the results of the analysis of apoptosis induced by other stimuli on 3DO transfected clones, wherein in FIG. 7A is shown the results obtained with withdrawn trophic factor; in FIG. 7B is shown the results obtained with u.v. irradiation (100 J/m2); in FIG. 7C is shown the results obtained with DEX ([…]); and in FIG. 7D is shown the results obtained with monoclonal (mAb) anti-Fas antibody (5 μg/ml). All groups were treated for 20 hours. Cell death was measured as indicated above with respect to FIG. 6, and as noted herein below. […]
# Aliquots of2 ml transfected clones (1×10^6/ml) were incubated with DEX or subjected to deprivation conditions (1% FCS). The apoptosis was evaluated after 20 hours as described below.
# Apoptosis was measured by flow cytometry as described elsewhere (Nicoletti et al., 1991). […] The PI-fluorescence of individual nuclei was measured by flow cytometry using standard FACScan equipment (Becton Dickinson). […] A 560 nm dichroid mirror (DM 570) and a 600 nm band pass filter (band width 35 nm) were used to collect the red fluorescence due to PI DNA staining. The data were recorded in logarithmic scale in a Hewlett Packard (HP 9000, model 310; Palo Alto, Calif.) computer. The percentage of apoptotic cell nuclei (sub-diploid DNA peak in the DNA fluorescence histogram) was calculated with specific FACScan research software (Lysis II).
# IL-2R = IL-2R (CD25) expression on 3DO transfected clones (flow cytometry); details: overexpression of GILR in transfected 3DO clones
# Method: For that purpose, GILR transfected clones were activated and analyzed for apoptosis and expression of activation markers, like the interleukin-2 receptor (IL-2R). In particular, after stimulation with cross-linked anti-CD3 monoclonal antibodies (1 μg/ml), GILR-transfected and empty vector clones (used as control) were stained with anti-IL-2R monoclonal antibody (CD25) or treated for propidium iodide labeling for apoptosis evaluation. The supernatants from control and anti-CD3-treated clones were used for IL-2 detection in an ELISA assay.
# [3] = tested on: Fas/Fas-L expression on 3DO transfected clones; experiment: Fas and Fas-L expression on 3DO transfected clones (flow cytometry); details: GILR expression in transfected 3DO clones
# Method: Hamster anti-mouse CD3ε (clone 145-2C11; Pharmingen, San Diego, Calif.) mAb at 1 μg/well (=1 μg/ml of anti-CD3 antibody) was allowed to adhere to flat-bottomed, high-binding 96-well plates (Costar, Cambridge, Mass.) at 4° C. in 100 μl PBS. After 20 hours, plates coated with mAb were washed and transfected clones were plated at 1×10^5 cells/well and incubated at 37° C. for 20 hours. Isotype-matched rat anti-mouse IgG 2b mAbs (clone R 35-38, Pharmingen) were used a control.
# A single suspension (1×10^6cells/sample) was incubated for 30 minutes on ice in 50 μl staining buffer (PBS plus 5% FCS), containing 10 μg/ml hamster anti-mouse Fas mAb directly conjugated to R-phycoerythrin (PE) or PE-hamster IgG (isotype control).
# Both mAbs were purchased from Pharmingen. Cells were also stained with rabbit polyclonal antibody raised against a peptide corresponding to amino acids 260-279 mapping at the carboxy terminus of human Fas-L (Santa Cruz Biotechnology, Inc., Santa Cruz, Calif.) or with isotype-matched antibody (ab), and with anti-rabbit IgG FITC conjugate, F(ab′)2 fragment (Sigma), as a second step reagent.
# All clones were stained with hamster anti-mouse αCD3, directly conjugated with fluorescein (Pharmingen). The median or percentage of Fas and Fas-L histograms was calculated using lysis II research software (Becton-Dickinson, Mountain View, U.S.A.).
molecule,measurement,setting,value
B1,TCR/CD3-activated apoptosis,3DO transfected clones [1],inhibits
same,"apoptosis induced by DEX, UV irradiation, starvation or crosslinked anti-Fas monoclonal antibody",3DO transfected clones [2],does not counteract
same,"anti-CD3 induced activation (IL-2R, IL-2)",IL-2R,inhibits
same,Fas/Fas-L expression,[3],inhibits
